The record followed here is US20170246255.

Positions count from the first letter of the chain named.

One data set has as its target T1, GLP-1 (BM).
T1 chain: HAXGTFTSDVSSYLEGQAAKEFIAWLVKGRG

The target in the next data set is T2, GLP-1 (3DMA).
T2 chain: T1 chain

A further data set deals with T3, GLP-1 (7-37).
T3 chain: T1 chain with X3E

For data set [1], the target named is T4, TLE-modified GLP-1 (7-37) analog.
T4 chain: T1 chain

B1: human DPP IV (protein)
chain: SRKTYTLTDYLKNTYRLKLYSLRWISDHEYLYKQENNILVFNAEYGNSSVFLENSTFDEFGHSINDYSISPDGQFILLEYNYVKQWRHSYTASYDIYDLNKRQLITEERIPNNTQWVTWSPVGHKLAYVWNNDIYVKIEPNLPSYRITWTGKEDIIYNGITDWVYEEEVFSAYSALWWSPNGTFLAYAQFNDTEVPLIEYSFYSDESLQYPKTVRVPYPKAGAVNPTVKFFVVNTDSLSSVTNATSIQITAPASMLIGDHYLCDVTWATQERISLQWLRRIQNYSVMDICDYDESSGRWNCLVARQHIEMSTTGWVGRFRPSEPHFTLDGNSFYKIISNEEGYRHICYFQIDKKDCTFITKGTWEVIGIEALTSDYLYYISNEYKGMPGGRNLYKIQLSDYTKVTCLSCELNPERCQYYSVSFSKEAKYYQLRCSGPGLPLYTLHSSVNDKGLRVLEDNSALDKMLQNVQMPSKKLDFIILNETKFWYQMILPPHFDKSKKYPLLLDVYAGPCSQKADTVFRLNWATYLASTENIIVASFDGRGSGYQGDKIMHAINRRLGTFEVEDQIEAARQFSKMGFVDNKRIAIWGWSYGGYVTSMVLGSGSGVFKCGIAVAPVSRWEYYDSVYTERYMGLPTPEDNLDHYRNSTVMSRAENFKQVEYLLIHGTADDNVHFQQSAQISKALVDVGVDFQAMWYTDEDHGIASSTAHQHIYTHMSHFIKQCFSLP
Regarding B1, the “cleavage of the peptide by the enzyme, HPLC/MS” value in the data set with GLP-1 (BM) is “both GLP-1 (3DMA) and GLP-1 (BM) were resistant to cleavage by DPP IV in comparison to native GLP-1”; with GLP-1 (3DMA), “both GLP-1 (3DMA) and GLP-1 (BM) were resistant to cleavage by DPP IV in comparison to native GLP-1”. The entries for the “cleavage of the peptide by the enzyme, HPLC/MS after two hours” value (with GLP-1 (7-37); in data set [1]) were “treatment with DPP IV resulted in a time dependent degradation of GLP-1” and “TLE-modified GLP-1 is resistant to degradation by DPP IV”, respectively.
